{"source": "paper PMC2901396", "target": "DNA polymerase gamma catalytic subunit p140, Exo- R964C (Homo sapiens, UniProt P54098 26-1239, D198A;E200A;R964C)", "sequence (P54098 26-1239 D198A/E200A/R964C)": "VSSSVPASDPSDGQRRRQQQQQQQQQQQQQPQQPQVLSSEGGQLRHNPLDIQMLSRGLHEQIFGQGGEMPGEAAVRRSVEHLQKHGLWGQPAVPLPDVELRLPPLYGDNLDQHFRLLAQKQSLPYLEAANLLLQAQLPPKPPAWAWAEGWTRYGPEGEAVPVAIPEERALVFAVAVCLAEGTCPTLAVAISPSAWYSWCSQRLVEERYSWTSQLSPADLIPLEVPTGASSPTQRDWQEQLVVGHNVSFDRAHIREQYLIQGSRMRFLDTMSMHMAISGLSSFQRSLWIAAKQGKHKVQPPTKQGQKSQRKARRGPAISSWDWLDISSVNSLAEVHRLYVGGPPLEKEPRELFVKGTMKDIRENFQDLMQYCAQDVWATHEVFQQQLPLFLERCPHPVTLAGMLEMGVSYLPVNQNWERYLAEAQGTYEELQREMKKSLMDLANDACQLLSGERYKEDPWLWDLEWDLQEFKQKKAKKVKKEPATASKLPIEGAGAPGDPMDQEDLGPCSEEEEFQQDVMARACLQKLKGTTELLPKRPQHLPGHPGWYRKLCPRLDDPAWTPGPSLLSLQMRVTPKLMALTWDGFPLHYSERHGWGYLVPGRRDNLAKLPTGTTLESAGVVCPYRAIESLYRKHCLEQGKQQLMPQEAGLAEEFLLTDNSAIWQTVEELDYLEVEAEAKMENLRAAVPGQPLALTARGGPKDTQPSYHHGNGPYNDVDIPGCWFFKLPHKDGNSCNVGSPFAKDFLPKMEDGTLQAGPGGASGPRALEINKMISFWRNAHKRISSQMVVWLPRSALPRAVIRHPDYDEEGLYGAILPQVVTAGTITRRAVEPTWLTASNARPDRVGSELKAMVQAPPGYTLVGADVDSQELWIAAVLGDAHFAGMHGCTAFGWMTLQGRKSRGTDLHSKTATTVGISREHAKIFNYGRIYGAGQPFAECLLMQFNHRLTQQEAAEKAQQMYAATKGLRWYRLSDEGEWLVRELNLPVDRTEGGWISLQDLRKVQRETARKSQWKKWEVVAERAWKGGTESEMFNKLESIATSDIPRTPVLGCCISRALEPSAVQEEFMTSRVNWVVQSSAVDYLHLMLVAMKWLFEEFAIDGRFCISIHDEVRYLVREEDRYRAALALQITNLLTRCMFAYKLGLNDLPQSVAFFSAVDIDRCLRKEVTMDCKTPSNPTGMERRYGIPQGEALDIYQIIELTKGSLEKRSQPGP", "assay": "EMSA"}
{"binder": "38-mer/34-mer primer-template (dsDNA) DNA 1: TTATCGCACCTACGTTCAATATTACAGGCGAACATACT DNA 2: GTATGTTCGCCTGTAATATTGAACGTAGGTGCGA", "values": [{"measurement": "Kd", "result": "75 ± 4", "unit": "nM"}]}
